B1: SNX8 (parent)
chain: RMVPALPPKRMLGADREFIEARRR

Variants of: B1
Experiment: protein stability index of a GFP-peptide fusion (GPS, HEK-293T) (PSI 1-6); higher = more stable
Conditions: c terminus: a fixed tail appended
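Further: lentivirally expressed fusions sorted by FACS into six bins by GFP to DsRed ratio, PSI derived from sequencing read proportions per bin multiplied by bin number.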

Variant	protein stability index
RMVPALPPKRMLGLDREFIEARRR [A14L]	3.55
RMVPALPPKRMLGHDREFIEARRR [A14H]	3.71
RMVPALPPKRMLGKDREFIEARRR [A14K]	3.84
RMVPALPPKRMLGIDREFIEARRR [A14I]	3.54
RMVPALPPKRMLGMDREFIEARRR [A14M]	3.24
RMVPALPPKRMLGNDREFIEARRR [A14N]	4.72
RMVPALPPKRMLGEDREFIEARRR [A14E]	4.34
RMVPALPPKRMLGADFEFIEARRR [R16F]	1.96
RMVPALPPKRMLGADIEFIEARRR [R16I]	2.78
RMVPALPPKRMLGADCEFIEARRR [R16C]	3.53
RMVPALPPKRMLGADKEFIEARRR [R16K]	3.71
RMVPALPPKRMLGADPEFIEARRR [R16P]	4.33
RMVPALPPKRMLGADEEFIEARRR [R16E]	4.41
RMVPALPPKRMLGADTEFIEARRR [R16T]	3.56
RMVPALPPKRMLGADDEFIEARRR [R16D]	4.07
RMVPALPPKRMLGADVEFIEARRR [R16V]	3.62
RMVPALPPKRMLGADMEFIEARRR [R16M]	3.55
RMVPALPPKRMLGADNEFIEARRR [R16N]	4.39
RMVPALPPKRMLGADGEFIEARRR [R16G]	3.88
RMVPALPPKRMLGADSEFIEARRR [R16S]	3.91
RMVPALPPKRMLGADAEFIEARRR [R16A]	4.04
RMVPALPPKRMLGADYEFIEARRR [R16Y]	2.08
RMVPALPPKRMLGADLEFIEARRR [R16L]	2.65
RMVPALPPKRMLGADHEFIEARRR [R16H]	3.67

Variant	protein stability index
RMVPALPPKRMLGADWEFIEARRR [R16W]	2.42
RMVPALPPKRMLGATREFIEARRR [D15T]	3.69
RMVPALPPKRMLGAEREFIEARRR [D15E]	3.52
RMVPALPPKRMLGAPREFIEARRR [D15P]	4.16
RMVPALPPKRMLGAHREFIEARRR [D15H]	3.22
RMVPALPPKRMLGAVREFIEARRR [D15V]	2.15
RMVPALPPKRMLGAYREFIEARRR [D15Y]	2.64
RMVPALPPKRMLGALREFIEARRR [D15L]	1.52
RMVPALPPKRMLGAIREFIEARRR [D15I]	1.91
RMVPALPPKRMLGAWREFIEARRR [D15W]	2.5
RMVPALPPKRMLGAQREFIEARRR [D15Q]	3.93
RMVPALPPKRMLGANREFIEARRR [D15N]	3.43
RMVPALPPKRMLGACREFIEARRR [D15C]	2.42
RMVPALPPKRMLGAAREFIEARRR [D15A]	2.77
RMVPALPPKRMLGAKREFIEARRR [D15K]	3.16
RMVPALPPKRMLGASREFIEARRR [D15S]	3.77
RMVPALPPKRMLGAFREFIEARRR [D15F]	1.99
RMVPALPPKRMLGAGREFIEARRR [D15G]	3.98
RMVPALPPKRMLGAMREFIEARRR [D15M]	1.56
RMVPALPPKRMHGADREFIEARRR [L12H]	4
RMVPALPPKRMSGADREFIEARRR [L12S]	4.41
RMVPALPPKRMPGADREFIEARRR [L12P]	4.18
RMVPALPPKRMTGADREFIEARRR [L12T]	4.43
RMVPALPPKRMKGADREFIEARRR [L12K]	3.25

Variant	protein stability index
RMVPALPPKRMRGADREFIEARRR [L12R]	4.19
RMVPALPPKRMIGADREFIEARRR [L12I]	4.08
RMVPALPPKRMQGADREFIEARRR [L12Q]	4.61
RMVPALPPKRMVGADREFIEARRR [L12V]	4.42
RMVPALPPKRMNGADREFIEARRR [L12N]	4.89
RMVPALPPKRMMGADREFIEARRR [L12M]	3.95
RMVPALPPKRMYGADREFIEARRR [L12Y]	3.73
RMVPALPPKRMWGADREFIEARRR [L12W]	4.05
RMVPALPPKRMLDADREFIEARRR [G13D]	3.79
RMVPALPPKRMLCADREFIEARRR [G13C]	2.17
RMVPALPPKRMLFADREFIEARRR [G13F]	2.22
RMVPALPPKRMLIADREFIEARRR [G13I]	2.79
RMVPALPPKRMLAADREFIEARRR [G13A]	2.81
RMVPALPPKRMLRADREFIEARRR [G13R]	4.06
RMVPALPPKRMLEADREFIEARRR [G13E]	3.57
RMVPALPPKRMLQADREFIEARRR [G13Q]	3.25
RMVPALPPKRMLLADREFIEARRR [G13L]	2.69
RMVPALPPKRMLYADREFIEARRR [G13Y]	3.13
RMVPALPPKRMLPADREFIEARRR [G13P]	2.83
RMVPALPPKRMLNADREFIEARRR [G13N]	3.29
RMVPALPPKRMLMADREFIEARRR [G13M]	2.43
RMVPALPPKRMLHADREFIEARRR [G13H]	3.37
RMVPALPPKRMLSADREFIEARRR [G13S]	3.54
RMVPALPPKRMLVADREFIEARRR [G13V]	2.54

Variant	protein stability index
RMVPALPPKRMLTADREFIEARRR [G13T]	3.14
RMVPALPPKRMLWADREFIEARRR [G13W]	2.17
RMVPALPPKRMLKADREFIEARRR [G13K]	3.72
RMVPALPPKRMLGADREFIMARRR [E20M]	3.39
RMVPALPPKRMLGADREFICARRR [E20C]	4.06
RMVPALPPKRMLGADREFITARRR [E20T]	3.99
RMVPALPPKRMLGADREFIRARRR [E20R]	4.28
RMVPALPPKRMLGADREFIDARRR [E20D]	4.31
RMVPALPPKRMLGADREFIGARRR [E20G]	4.02
RMVPALPPKRMLGADREFIWARRR [E20W]	3.26
RMVPALPPKRMLGADREFIHARRR [E20H]	3.98
RMVPALPPKRMLGADREFIAARRR [E20A]	3.51
RMVPALPPKRMLGADREFIVARRR [E20V]	4.11
RMVPALPPKRMLGADREFILARRR [E20L]	3.9
RMVPALPPKRMLGADREFIFARRR [E20F]	3.12
RMVPALPPKRMLGADREFISARRR [E20S]	4
RMVPALPPKRMLGADREFINARRR [E20N]	4.12
RMVPALPPKRMLGADREFIPARRR [E20P]	4.24
RMVPALPPKRMLGADREFIQARRR [E20Q]	4.01
RMVPALPPKRMLGADREFIKARRR [E20K]	3.94
RMVPALPPKRMLGADREFIYARRR [E20Y]	3.68
RMVPALPPKRMLGADREFIIARRR [E20I]	3.27
